Test results: PMC9711875

Target: CD177 (UniProt Q8N6Q3)
Assay: SPR; Biacore T200; CD177 amine coupled to a CM5 chip (about 770 counts for kinetic measurements); PR3 or AAT as soluble analytes in 10 mM HEPES, 150 mM NaCl, 0.05% Tween20; 30 μL/minute; 25°C

B1: purified proteinase 3 (enzyme)
chain: IVGGHEAQPHSRPYMASLQMRGNPGSHFCGGTLIHPSFVLTAAHCLRDIPQRLVNVVLGAHNVRTQEPTQQHFSVAQVFLNNYDAENKLNDVLLIQLSSPANLSASVATVQLPQQDQPVPHGTQCLAMGWGRVGAHDPPAQVLQELNVTVVTFFCRPHNICTFVPRRKAGICFGDSGGPLICDGIIQGIDSFVIWGCATRLFPDFFTRVALYVDWIRSTLR
Q: Which Kd does the source give for B1 here?
A: 20 nM
